Consider two molecules from article PMC9859754, “Multivalent interactions facilitate motor-dependent protein accumulation at growing microtubule plus-ends” (Nature Cell Biology, 2022).

Common to all, as to settings: both partners purified
For assay [1], the target named is T1, Tea2-Alexa647 (S. pombe, UniProt Q1MTQ1 1-628, Alexa Fluor 647 (NHS ester labelling, sites not stated)).
T1 construct: Tea2 (kinesin-7 homologue), Schizosaccharomyces pombe, full length; also called Tea2-647; source: bacterially expressed, purified (Talon resin, eluted with 3C protease, SEC), labelled with Alexa Fluor 647 NHS ester; not shown: Z-tag, N-terminal, cleaved
T1 sequence (looked up): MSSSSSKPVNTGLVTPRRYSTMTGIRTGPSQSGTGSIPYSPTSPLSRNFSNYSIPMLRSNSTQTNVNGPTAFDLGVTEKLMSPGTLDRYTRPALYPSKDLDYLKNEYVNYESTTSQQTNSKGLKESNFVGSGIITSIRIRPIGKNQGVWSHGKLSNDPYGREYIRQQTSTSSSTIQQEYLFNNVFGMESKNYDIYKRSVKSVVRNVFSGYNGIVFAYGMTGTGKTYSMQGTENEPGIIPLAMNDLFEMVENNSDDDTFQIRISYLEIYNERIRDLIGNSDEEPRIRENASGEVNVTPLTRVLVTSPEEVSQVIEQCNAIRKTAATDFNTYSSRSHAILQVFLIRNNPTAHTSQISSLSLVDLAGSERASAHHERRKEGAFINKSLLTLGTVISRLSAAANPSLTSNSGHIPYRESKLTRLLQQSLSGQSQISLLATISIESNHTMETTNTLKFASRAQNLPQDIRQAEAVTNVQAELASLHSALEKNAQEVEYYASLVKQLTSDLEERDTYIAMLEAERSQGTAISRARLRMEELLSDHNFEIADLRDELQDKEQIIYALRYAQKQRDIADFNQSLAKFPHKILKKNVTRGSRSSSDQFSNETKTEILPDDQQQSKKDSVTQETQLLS
Nature of the assay: scaffold-client recruitment into condensates (spinning disc confocal microscopy); scaffold condensates of 200 nM FL Mal3, 215 nM Tip1 (each tagged with 2 nM FL Mal3:mCherry) or Tea2-Alexa647, with 2 nM Mal3:GFP construct as client; 1x MRB80, 50 mM KCl, 10% PEG6k, 2 mM ATP, 1 mM GTP, 2 mM dithiothreitol, 0.5 mM β-mercaptoethanol; imaged about 30 min after mixing.

For assay [2], the target named is T2, Full-length S. pombe Mal3, unlabelled (S. pombe, UniProt Q10113 1-308).
T2 construct: Mal3 (EB homologue), Schizosaccharomyces pombe, full length; Scaffold (200 nM) in the scaffold-client assay; also the Mal3 of the cryo-ET samples; also called FL-Mal3; FLMal3; source: E. coli ER2566, purified (Talon resin, eluted with 3C protease, SEC); not shown: His8, N-terminal, cleaved
T2 sequence (looked up): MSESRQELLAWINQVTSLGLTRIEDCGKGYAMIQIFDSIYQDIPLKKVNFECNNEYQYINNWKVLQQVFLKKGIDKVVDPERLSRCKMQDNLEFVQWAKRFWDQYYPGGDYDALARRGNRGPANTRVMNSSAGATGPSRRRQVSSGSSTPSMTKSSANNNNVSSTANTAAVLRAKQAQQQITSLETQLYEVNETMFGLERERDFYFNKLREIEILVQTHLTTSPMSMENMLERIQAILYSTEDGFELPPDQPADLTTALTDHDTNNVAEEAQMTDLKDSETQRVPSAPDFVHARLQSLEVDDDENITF
Described as above.

Assay [3] has as its target T1, Tea2-Alexa647. Nature of the assay: TIRF microscopy of purified fluorescent proteins on microtubules; plus-end-tracking reconstitution without PEG: 200 nM Mal3 or Mal3 construct, 20 nM Tea2, 150 nM Tip1 together on dynamic microtubules grown from surface-bound GMPCPP seeds; MRB80, 50 mM KCl, 14.5 µM tubulin, 0.5 µM rhodamine tubulin, 1 mM GTP, 2 mM ATP, 0.1% methylcellulose.

B1: Full-length Mal3:GFP (natural protein, S. pombe, UniProt Q10113 1-308, looked up)
chain: MSESRQELLAWINQVTSLGLTRIEDCGKGYAMIQIFDSIYQDIPLKKVNFECNNEYQYINNWKVLQQVFLKKGIDKVVDPERLSRCKMQDNLEFVQWAKRFWDQYYPGGDYDALARRGNRGPANTRVMNSSAGATGPSRRRQVSSGSSTPSMTKSSANNNNVSSTANTAAVLRAKQAQQQITSLETQLYEVNETMFGLERERDFYFNKLREIEILVQTHLTTSPMSMENMLERIQAILYSTEDGFELPPDQPADLTTALTDHDTNNVAEEAQMTDLKDSETQRVPSAPDFVHARLQSLEVDDDENITF
notes: Mal3 (EB homologue), Schizosaccharomyces pombe, full length; source: E. coli ER2566, purified (Talon resin, eluted with 3C protease, SEC); not shown: His8, N-terminal, cleaved
B1: the binding result (with Tea2-Alexa647 [1]; in assay [2]) was “binds” in each case.

B2: Mal3-Alexa488 (natural protein, S. pombe, UniProt Q10113 1-308, looked up)
chain: MSESRQELLAWINQVTSLGLTRIEDCGKGYAMIQIFDSIYQDIPLKKVNFECNNEYQYINNWKVLQQVFLKKGIDKVVDPERLSRCKMQDNLEFVQWAKRFWDQYYPGGDYDALARRGNRGPANTRVMNSSAGATGPSRRRQVSSGSSTPSMTKSSANNNNVSSTANTAAVLRAKQAQQQITSLETQLYEVNETMFGLERERDFYFNKLREIEILVQTHLTTSPMSMENMLERIQAILYSTEDGFELPPDQPADLTTALTDHDTNNVAEEAQMTDLKDSETQRVPSAPDFVHARLQSLEVDDDENITF
modifications: Alexa Fluor 488 (TFP ester labelling, sites not stated)
notes: Mal3 (EB homologue), Schizosaccharomyces pombe, full length; source: E. coli ER2566, purified (Talon resin, eluted with 3C protease, SEC), labelled with Alexa Fluor 488 TFP ester; not shown: His8, N-terminal, cleaved
With B2, the binding result with Tea2-Alexa647 [3] is recorded as “binds”.
